Assay results published in article PMC11182496, “Dissecting positive selection events and immunological drives during the evolution of adeno-associated virus lineages” (PLOS Pathogens, 2024).

Key:
[1] = molecular target: AAV2-G548 capsid (adeno-associated virus 2)
[2] = molecular target: AAV2-E548 capsid (wild-type AAV2 capsid) (Adeno-associated virus 2, wild type …, UniProt P03135); assay: cell-based or functional assay
[3] = molecular target: AAV2-G548 capsid (adeno-associated virus 2); assay: ELISA; plates coated with 10^9 vector genomes of AAV variants in 0.1 M sodium bicarbonate buffer pH 9.6 overnight at 4°C; antibody serially diluted in PBS with 1% BSA, 37°C for 1.5 hours; anti-mouse IgG-HRP, OD450; EC50 from a sigmoidal fit

Chain of AAV2-E548 capsid (wild-type AAV2 capsid) (P03135 whole entry, looked up, the tested form may be a part): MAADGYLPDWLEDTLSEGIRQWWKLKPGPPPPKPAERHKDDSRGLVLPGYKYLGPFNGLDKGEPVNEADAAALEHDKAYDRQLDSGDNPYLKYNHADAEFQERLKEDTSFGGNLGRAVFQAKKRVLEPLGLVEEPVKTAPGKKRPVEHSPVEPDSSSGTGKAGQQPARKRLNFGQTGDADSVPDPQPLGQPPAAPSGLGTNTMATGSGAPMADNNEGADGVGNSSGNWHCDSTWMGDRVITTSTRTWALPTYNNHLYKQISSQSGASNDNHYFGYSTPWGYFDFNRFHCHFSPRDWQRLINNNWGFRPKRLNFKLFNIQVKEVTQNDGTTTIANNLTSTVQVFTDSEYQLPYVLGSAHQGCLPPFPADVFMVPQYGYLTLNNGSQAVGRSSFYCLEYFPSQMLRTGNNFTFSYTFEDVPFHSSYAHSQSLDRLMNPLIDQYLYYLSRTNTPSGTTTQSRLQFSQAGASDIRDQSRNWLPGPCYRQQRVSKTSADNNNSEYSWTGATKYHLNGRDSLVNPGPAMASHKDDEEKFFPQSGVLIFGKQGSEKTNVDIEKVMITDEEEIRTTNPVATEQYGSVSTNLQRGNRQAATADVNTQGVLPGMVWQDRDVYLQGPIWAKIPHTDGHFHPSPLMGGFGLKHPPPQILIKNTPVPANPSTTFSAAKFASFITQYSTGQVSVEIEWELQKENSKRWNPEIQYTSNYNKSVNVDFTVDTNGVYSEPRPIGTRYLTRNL

B1: mouse monoclonal antibody A20 (antibody, V domains shown)
VH: DVQLQESGPDLVKPSQSLSLTCTVTGYSITSGYTWHWIRQFPGNKQEWMGYIHFSGYTNYNPSLKSRVSITRDTSKNQFFLHLNSVTTEDTATYYCARGDYGYEWFTYWGQGTLVTVSA
VL: DIQMTQSSSSFSVSLGDRVTITCKASEDIHNRLAWYKQKPGNAPRLLISGATSLETGVPSRFSGSGSGKDYTLSITSLQNEDVATYYCQQYWIGPFTFGSGTNLEIK
In the case of B1, the neutralization of the lacZ AAV vector's transduction of 293 cells (β-galactosidase assay), average IC50 [1] is reported as 0.201 µg/mL, the “neutralization of the lacZ AAV vector's transduction of 293 cells (β-galactosidase assay), average IC50” value [2] is reported as 0.2 µg/mL and the OD450 at the highest A20 concentration (10 μg/ml) [3] is reported as 0.132 OD450.
